Where two headings read alike, the source gives them in different places.
B1: Recombinant CD3epsilon/delta Fc fusion protein (Sino Biological) (Fc fusion)
chain 1: DGNEEMGGITQTPYKVSISGTTVILTCPQYPGSEILWQHNDKNIGGDEDDKNIGSDEDHLSLKEFSELEQSGYYVCYPRGSKPEDANFYLYLRARVCENCMEMD
chain 2: FKIPIEELEDRVFVNCNTSITWVEGTVGTLLSDITRLDLGKRILDPRGIYRCNGTDIYKDKESTVQVHYRMCQSCVELDPATVA
notes: also called recombinant CD3 fusion protein
B2: v29191, 2+1 Fab^3 TCB benchmark construct [MSLN (2 Fab) x CD3 (1 Fab)] (bispecific antibody, human IgG1, kappa, L234A L235A)
heavy 1: not shown
heavy 2: QVQLVQSGAEVKKPGASVKVSCKASGYSFTGYTMNWVRQAPGQGLEWMGLITPYNGASSYNQKFRGKATMTVDTSTSTVYMELSSLRSEDTAVYYCARGGYDGRGFDYWGQGTLVTVSSASTKGPSVFPLAPSSKSTSGGTAALGCLVEDYFPEPVTVSWNSGALTSGVHTFPAVLQSSGLYSLSSVVTVPSSSLGTQTYICNVNHKPSNTKVDEKVEPKSCDKTHTCPPCPAPEAAGGPSVFLFPPKPKDTLMISRTPEVTCVVVDVSHEDPEVKFNWYVDGVEVHNAKTKPREEQYNSTYRVVSVLTVLHQDWLNGKEYKCKVSNKALGAPIEKTISKAKGQPREPQVCTLPPSRDELTKNQVSLSCAVKGFYPSDIAVEWESNGQPENNYKTTPPVLDSDGSFFLVSKLTVDKSRWQQGNVFSCSVMHEALHNHYTQKSLSLSPG
light 1: EVQLLESGGGLVQPGGSLRLSCAASGFTFSTYAMNWVRQAPGKGLEWVSRIRSKYNNYATYYADSVKGRFTISRDDSKNTLYLQMNSLRAEDTAVYYCVRHGNFGNSYVSWFAYWGQGTLVTVSSASVAAPSVFIFPPSDEQLKSGTASVVCLLNNFYPREAKVQWKVDNALQSGNSQESVTEQDSKDSTYSLSSTLTLSKADYEKHKVYACEVTHQGLSSPVTKSFNRGEC
light 2: DIQMTQSPSSLSASVGDRVTITCSASSSVSYMHWYQQKSGKAPKLLIYDTSKLASGVPSRFSGSGSGTDFTLTISSLQPEDFATYYCQQWSKHPLTFGQGTKLEIKRTVAAPSVFIFPPSDRKLKSGTASVVCLLNNFYPREAKVQWKVDNALQSGNSQESVTEQDSKDSTYSLSSTLTLSKADYEKHKVYACEVTHQGLSSPVTKSFNRGEC
notes: also called Fab^3 benchmark
B3: v21812, trivalent and bispecific antibody construct [MSLN (2 scFv) x CD3 (1 Fab)] (bispecific antibody, human IgG1, lambda, L234A L235A)
heavy 1: QVQLVQSGAEVKKPGASVKVSCKASGYSFTGYTMNWVRQAPGQGLEWMGLITPYNGASSYNQKFRGKATMTVDTSTSTVYMELSSLRSEDTAVYYCARGGYDGRGFDYWGQGTLVTVSSGGGGSGGGGSGGGGSDIQMTQSPSSLSASVGDRVTITCSASSSVSYMHWYQQKSGKAPKLLIYDTSKLASGVPSRFSGSGSGTDFTLTISSLQPEDFATYYCQQWSGYPLTFGQGTKLEIKAAEPKSSDKTHTCPPCPAPEAAGGPSVFLFPPKPKDTLMISRTPEVTCVVVSVSHEDPEVKFNWYVDGVEVHNAKTKPREEQYNSTYRVVSVLTVLHQDWLNGKEYKCKVSNKALPAPIEKTISKAKGQPREPQVYVLPPSRDELTKNQVSLLCLVKGFYPSDIAVEWESNGQPENNYLTWPPVLDSDGSFFLYSKLTVDKSRWQQGNVFSCSVMHEALHNHYTQKSLSLSPG
heavy 2: not shown
light: NFMLTQPHSVSESPGKTVTISCKRNTGNIGSNYVNWYQQHEGSSPTTIIYRNDKRPDGVSDRFSGSIDRSSKSASLTISNLKTEDEADYFCQSYSSGFIFGGGTKLTVLGQPKAAPSVTLFPPSSEELQANKATLVCLISDFYPGAVTVAWKADSSPVKAGVETTTPSKQSNNKYAASSYLSLTPEQWKSHRSYSCQVTHEGSTVEKTVAPTECS
notes: also called parental construct of v32523; dual scFv trivalent variant
B4: v32523, trivalent and bispecific antibody construct [MSLN (2 scFv) x CD3 (1 Fab)] (bispecific antibody, human IgG1, lambda, L234A L235A)
heavy 1: not shown
heavy 2: DIQMTQSPSSLSASVGDRVTITCSASSSVSYMHWYQQKSGKAPKLLIYDTSKLASGVPSRFSGSGSGTDFTLTISSLQPEDFATYYCQQWSGYPLTFGQGTKLEIKGGGGSGGGGSGGGGSGGGGSQVQLVQSGAEVKKPGASVKVSCKASGYSFTGYTMNWVRQAPGQGLEWMGLITPYNGASSYNQKFRGKATMTVDTSTSTVYMELSSLRSEDTAVYYCARGGYDGRGFDYWGQGTLVTVSSAAEPKSSDKTHTCPPCPAPEAAGGPSVFLFPPKPKDTLMISRTPEVTCVVVSVSHEDPEVKFNWYVDGVEVHNAKTKPREEQYNSTYRVVSVLTVLHQDWLNGKEYKCKVSNKALPAPIEKTISKAKGQPREPQVYVLPPSRDELTKNQVSLLCLVKGFYPSDIAVEWESNGQPENNYLTWPPVLDSDGSFFLYSKLTVDKSRWQQGNVFSCSVMHEALHNHYTQKSLSLSPG
light: B3 light
notes: also called construct v32523; stability engineered construct

Key:
[1] = target: T1, v31805, MH6T-TriTAC benchmark construct [MSLN (VHH) x Alb (VHH) x CD3 (scFv)]; assay: SPR, BioRad ProteOn XPR36, 25 C, CD3 epsilon/delta-Fc captured on anti-Fc chip
[2] = target: T1, v31805, MH6T-TriTAC benchmark construct …; assay: SPR, BioRad ProteOn XPR36, 25 C, CD3 epsilon/delta-Fc captured on anti-Fc chip; value as printed, implausible for ka
[3] = target: T2, mesothelin (MSLN) on MSLN-expressing tumor cells (human, UniProt Q13421 296-598); assay: cell-based or functional assay
T2 sequence (Q13421 other isoform, or with tags, fused parts or gaps limits assumed): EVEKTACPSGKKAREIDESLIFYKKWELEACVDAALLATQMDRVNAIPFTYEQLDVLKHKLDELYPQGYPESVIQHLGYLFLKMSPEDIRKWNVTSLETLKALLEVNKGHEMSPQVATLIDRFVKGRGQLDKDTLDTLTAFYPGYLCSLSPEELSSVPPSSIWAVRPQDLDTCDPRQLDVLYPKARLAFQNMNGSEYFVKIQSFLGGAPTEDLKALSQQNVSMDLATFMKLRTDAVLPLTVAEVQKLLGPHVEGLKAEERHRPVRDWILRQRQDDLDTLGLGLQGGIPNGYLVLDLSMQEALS

[4] = target: T3, MSLN (form in the assay not stated) (UniProt Q13421 296-580); assay: method and antigen form not stated in Table 12
T3 sequence (Q13421 other isoform, or with tags, fused parts or gaps limits assumed): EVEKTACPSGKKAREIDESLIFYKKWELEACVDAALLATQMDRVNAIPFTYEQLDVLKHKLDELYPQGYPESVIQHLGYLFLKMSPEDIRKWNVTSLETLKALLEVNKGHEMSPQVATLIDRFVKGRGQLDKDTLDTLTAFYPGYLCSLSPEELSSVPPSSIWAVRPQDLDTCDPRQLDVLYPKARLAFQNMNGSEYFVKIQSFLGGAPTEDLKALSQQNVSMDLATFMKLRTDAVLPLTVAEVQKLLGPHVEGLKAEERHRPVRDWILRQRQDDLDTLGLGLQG

[5] = target: T2, mesothelin (MSLN) on MSLN-expressing …; assay: whole-cell flow cytometry on OVCAR-3 cells, apparent affinity
[6] = target: T4, CD3 on CD3+ Jurkat cells and primary human T cells (human, UniProt P07766 23-207); assay: whole-cell flow cytometry on primary human T cells, apparent affinity
T4 construct: whole, on cells; also called native CD3; CD3ε
Target sequence in this assay (P07766 23-207): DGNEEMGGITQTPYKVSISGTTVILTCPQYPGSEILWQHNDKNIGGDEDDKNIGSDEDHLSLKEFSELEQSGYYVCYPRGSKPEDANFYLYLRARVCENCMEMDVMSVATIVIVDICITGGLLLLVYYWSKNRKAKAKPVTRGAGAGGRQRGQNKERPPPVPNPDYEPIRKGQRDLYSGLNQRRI

[7] = target: T2, mesothelin (MSLN) on MSLN-expressing …; assay: assay not given; matches Table 16 (OVCAR-3 cells); reference v32523
[8] = target: T4, CD3 on CD3+ Jurkat cells and primary …; assay: flow cytometry on human pan T cells, CD4+ gate (Alexa Fluor 647 anti-IgG-Fc, MFI)
Target sequence in this assay (P07766 23-207): as above

[9] = target: T4, CD3 on CD3+ Jurkat cells and primary …; assay: flow cytometry on human pan T cells, CD8+ gate (Alexa Fluor 647 anti-IgG-Fc, MFI)
Target sequence in this assay (P07766 23-207): as above

[10] = target: T4, CD3 on CD3+ Jurkat cells and primary …; assay: flow cytometry on human pan T cells, CD4+ and CD8+ cells together (Alexa Fluor 647 anti-IgG-Fc, MFI)
Target sequence in this assay (P07766 23-207): as above

[11] = target: T2, mesothelin (MSLN) on MSLN-expressing …
[12] = target: T2, mesothelin (MSLN) on MSLN-expressing …; remark: listed apart in the source
[13] = target: T2, mesothelin (MSLN) on MSLN-expressing …; remark: listed apart in the source
[14] = target: T2, mesothelin (MSLN) on MSLN-expressing …; assay: cell-based or functional assay; remark: listed apart in the source
[15] = target: T3, MSLN (form in the assay not stated); assay: method not stated; reference v29191
[16] = target: T3, MSLN (form in the assay not stated); assay: method not stated; reference v31805
[17] = target: T4, CD3 on CD3+ Jurkat cells and primary …; assay: whole-cell ELISA on CD3+ Jurkat cells, apparent affinity
[18] = target: T4, CD3 on CD3+ Jurkat cells and primary …; assay: flow cytometry on primary human T cells, apparent affinity
[19] = target: T4, CD3 on CD3+ Jurkat cells and primary …; assay: cell ELISA on whole CD3+ Jurkat cells (HRP anti-human IgG Fc, A 450nm)
[20] = target: T5, Recombinant MSLN Fc fusion protein (R&D: 3265-MS) (UniProt Q13421 296-580); assay: SPR; reference v31805
T5 construct: also called recombinant MSLN fusion protein

[21] = target: B1; assay: SPR; reference v31805
[22] = target: T2, mesothelin (MSLN) on MSLN-expressing …; assay: cell-based or functional assay; remark: listed apart in the source
[23] = target: T4, CD3 on CD3+ Jurkat cells and primary …; assay: flow cytometry on primary human T cells; reference v29191
Target sequence in this assay (P07766 23-207): as above

[24] = target: T4, CD3 on CD3+ Jurkat cells and primary …; assay: flow cytometry on primary human T cells; reference v31805
Target sequence in this assay (P07766 23-207): as above

[25] = target: T5, Recombinant MSLN Fc fusion protein …; assay: SPR, BioRad ProteOn XPR36, 25 C, MSLN-Fc captured on anti-Fc chip
[26] = target: T5, Recombinant MSLN Fc fusion protein …; assay: assay not given; matches Table 15 (SPR); reference v31805
[27] = target: B1; assay: as above
[28] = target: B1; assay: SPR, BioRad ProteOn XPR36, 25 C, CD3 epsilon/delta-Fc captured on anti-Fc chip
[29] = target: T2, mesothelin (MSLN) on MSLN-expressing …; assay: flow cytometry on MSLN+ OVCAR-3 cells (Alexa Fluor 647 anti-IgG-Fc, MFI)

## B1
[1]
  Kd: 0.75 nM
  koff: 0.00379 s⁻¹
[2]
  kon: 5.04e+06 M⁻¹ s⁻¹

## B2
[3]
  IC50 of T cell-dependent cytotoxicity on OVCAR-3 cells (pan T cells, E:T 5:1, 72 h): 0.89 pM
[4]
  Affinity to MSln: 0.02 nM
[5]
  EC50: 0.4 nM
[6]
  EC50: 18.7 nM
[7]
  fold higher relative affinity vs v32523: 7 fold
[8]
  EC50 (read off the curve): ~20 nM
[9]
  EC50 (read off the curve): ~30 nM
[10]
  EC50 (read off the curve): ~20 nM

## B3
[11]
  Kd: ~0.47 nM
[12]
  EC50: 0.4 nM
[13]
  EC50 (read off the curve): ~0.5 nM
[14]
  maximum killing of BxPC3 cells: 75%
[3]
  IC50 of T cell-dependent cytotoxicity on OVCAR-3 cells (pan T cells, E:T 5:1, 72 h): 0.05 pM
[15]
  fold lower binding affinity vs v29191: ~45 fold
[16]
  fold lower affinity vs v31805: ~20 fold
[4]
  Affinity to MSln: 0.9 nM
[17]
  EC50: 17.7 nM
[18]
  EC50: 58.8 nM
[19]
  EC50 (read off the curve): ~9 nM

## B4
[20]
  fold lower affinity vs v31805: 32 fold
[21]
  fold lower affinity vs v31805: 53 fold
[22]
  IC50 of T cell-dependent cytotoxicity on HCT116 cells (pan T cells, E:T 5:1, 72 h): 1.1 pM
[23]
  fold lower apparent affinity vs v29191: ~2.7 fold
[24]
  fold lower apparent affinity vs v31805: ~8.6 fold
[5]
  EC50: 2.8 nM
[25]
  Kd: 1.01 nM
  koff: 0.000719 s⁻¹
  kon: 714000 M⁻¹ s⁻¹
[26]
  fold lower affinity vs v31805: ~30 fold
[27]
  fold lower affinity vs v31805: ~50 fold
[6]
  EC50: 50.5 nM
[28]
  Kd: 40.1 nM
  koff: 0.0112 s⁻¹
  kon: 279000 M⁻¹ s⁻¹
[29]
  EC50 (read off the curve): ~3 nM
[8]
  EC50 (read off the curve): ~60 nM
[9]
  EC50 (read off the curve): ~80 nM
[10]
  EC50 (read off the curve): ~60 nM

From patent publication US20240327516A1 (Zymeworks, published 2024)
